Results reported in patent publication US20100216853.

How the values were obtained:
H4-12(K5X/K12A) peptide = molecular target: T1, H4-12(K5X/K12A) peptide
T1 chain: RGXGGKGLGAGA

H4-15(K5D/K12D) peptide = molecular target: T2, H4-15(K5D/K12D) peptide
T2 chain: GRGDGGKGLGDGGAK

H4-12(K5A/K12A) peptide = molecular target: T3, H4-12(K5A/K12A) peptide
T3 chain: RGAGGKGLGAGA

[1] = molecular target: T4, H4-15 histone H4 tail peptide
T4 chain: GRGKGGKGLGKGGAK

B1: semi-synthetic p300 HAT domain, wild-type (protein)
chain: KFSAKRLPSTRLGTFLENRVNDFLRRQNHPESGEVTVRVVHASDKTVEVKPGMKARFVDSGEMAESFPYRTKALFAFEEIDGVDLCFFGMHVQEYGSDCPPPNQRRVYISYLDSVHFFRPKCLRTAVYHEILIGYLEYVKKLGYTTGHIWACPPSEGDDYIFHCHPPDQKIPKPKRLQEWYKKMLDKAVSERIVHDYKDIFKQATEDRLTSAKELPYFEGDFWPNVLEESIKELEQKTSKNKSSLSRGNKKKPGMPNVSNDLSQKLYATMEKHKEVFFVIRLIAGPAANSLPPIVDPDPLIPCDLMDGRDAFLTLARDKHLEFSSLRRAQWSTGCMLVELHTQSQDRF
For B1, the Km (H4-12(K5X/K12A) peptide) was “Km of these substrates were generally too high to be measured (>1000 µM)”, the V/K(M^-1s^-1) for W.T. (H4-12(K5X/K12A) peptide) was 5250 M⁻¹ s⁻¹ and the Km (H4-15(K5D/K12D) peptide) was “Km of these substrates were generally too high to be measured (>1000 µM)”. For the same protein, the V/K(M^-1s^-1) for W.T. (H4-15(K5D/K12D) peptide) was 636 M⁻¹ s⁻¹, the Km (H4-12(K5A/K12A) peptide) was “Km of these substrates were generally too high to be measured (>1000 µM)” and the V/K(M^-1s^-1) for W.T. (H4-12(K5A/K12A) peptide) was 3820 M⁻¹ s⁻¹. For the same protein, the Km(µM) for H4-15 [1] was 164 µM, the V/K [1] was 25000 ± 1640 M⁻¹ s⁻¹ and the V/K(M^-1s^-1) for W.T. [1] was 25000 M⁻¹ s⁻¹.
